Results published in the DeepSol protein solubility set.

Test: soluble on expression in E. coli; label from the status in PepcDB or PDB records

| Sequence | soluble on expression in E. coli |
| --- | --- |
| MAVKRPVRVLVNMDGVLADFESGLLQGFRRRFPEEPHVPLEQRRGFLANEQYGALRPDLAEKVASVYESPGFFLNLEPIPGALDALREMNDMKDTEVFICTTPLLKYDHCVGEKYRWVEQNLGPEFVERIILTRDKTVVMGDLLIDDKDNIQGLEETPSWEHILFTCCHNQHLALPPTRRRLLSWSDNWRGIIESKRASL | soluble |
| MGSDKIHHHHHHMSKILSIIIPTYNAEKFLNKGLSSFLVCRDTDAQTAQHNCKMATEGRFEEIDIDKAILDKLEVIVVNDGTPDKSVEVAQKFVDWYPDTFVIVNKTNGGHGSAINTGVEHVRGKYLKVVDADDWVDTLALKKLITTLQVLEAAQEKQDTRVMDAMLMSYTTYDLQKAAKGDIPYEEHLVVPGTKHDKSVDIQNLGGPYSSQVIAKHFDDVYWGLTFHGILYNTAFYRGLAHKLAEGIFYEDQEYAAVPMAYADTIYVYDEQLYQYRIGDVSQSISMESSLKRLSHYETVIRTLIAEGGNSEEFAPGGKQIWGIKTAKFIDDYYQLCLIKNPDKKMLRDRMEKFTSEIKSADGYIYGLIEKNYKVFRMLNKLHMNEKVYQKVFIPMVHLIRK | not soluble |
| MTDLSRSQFGFRKARSTVDVVNIVVKVAAQAIEGIMVTLDIRNVFNTARWDRIIKALIGFGELAYLVRIIRSYFSKRVLLCESSEGVFSPQVTGGVPKGSVLGQLLWNAMKTGYFAYHWLRGTNRRLRGRRGFARCLEHHHHHH | not soluble |
| QAGFNDLFTINNTPAKTATEIYLENFPEQRNPLKSTGVNIVFKAPEGHTLAEPENKAAMDSVVQAIQDNLEGLTNTQRFGNPVELNPKLQQGVIDLMTQRGVPEENARADAANLSLITPDETIGYTTFDIDVPMPADVSDAQRQAITDAMNLGREKGLTVEAGGAGFGDPIVIEETSE | not soluble |
| SLAKYLELSMGFEEVAYRGLETNSRRLASHVVRNGNILFEIINTLESVAEHYPTVPMSKEEALSIKLDYSADEAHILKSLKEKIIKLTAEIVDENLDRYKYAMDIKAAKENLERSIINSTNFTAAISTIRKSINECVETSKKAIQDNFESFLIQEFVKIHGEGVMDISFNVLDVDSAFQKAIESGAYIIKLPQTMSDVHGSVKLATIAVPYTDIHHTLIQNKDYSGPFLPNYTKSIIEKPETYMHQLESLPPIRLDCIDHCVENYSWNQMMEHARFYANIFGFHKYWSVDEKDVFTGETALKSIVMASSNGKVKMPINEPAKGRKKSQIEEFYDFNGGPGVQHIALKTNDIIATVTSLRKRGIEFNPASQKYYDTLKQRLINDDIILKEDFNSIQNLNILVDYDPETRNNASKTCNYILQIFTKPLHDRPTLFIEIIQRRHHNGFGKGTFKGLFETIEAQQKLRGTLVSSDEG | not soluble |
| MGSDKIHHHHHHMIVRHKLLADLVRLWKNDQLVEKIDRLPIELSPRKSKPLGRCCVHKERAVWRYKTFPLMGLDMTDEHDEVTPLSEYARMALNRPEPSKENIMCVIDEACSSCVQINYEITNLCRGCVARSCYMNCPKDAIRFKKNGQAMIDHDTCVSCGICHKSCPYHAIVYIPVPCEESCPVKAISKDEHGVEHIDESKCIYCGKCMNACPFGAIFEISQTFDVLQHIKKGEKLVAIIAPSILGQFKTSIEQVYGAFKEIGFTDIIEVAEGAMMTTSNEAHELLEKLEEGQKFMTTSCCPSYIELVEKHMTEMKPYVSTTGSPMYYAARIAKEKHPDAKIVFVGPCVAKRKEVRRDDAVDYILTFEEVGSILDGMDIQLEQVNSFSILHTSVREAHGFAQAGGVMGAVKAYLKEEADKINAIQVSDINKKNIALLRACAKTGKAAGQFIEVMACEGGCITGPSTHNDIVSGRRQLAQELLKRKESYETMDR | not soluble |
| MLDKLDRLEEEYRELEALLSDPEVLKDKGRYQSLSRRYAEMGEVIGLIREYRKVLEDLEQAESLLDDPELKEMAKAEREALLARKEALEKELERHLLPKDPMDERDAIVEIRAGTGGEEAALFARDLFNMYLRFAEEMGFETEVLDSHPTDLGGFSKVVFEVRGPGAYGTFKYESGVHRVQRVPVTETQGRIHTSTATVAVLPKAEEEDFALNMDEIRIDVMRASGPGGQGVNTTDSAVRVVHLPTGIMVTCQDSRSQIKNREKALMILRSRLLEMKRAEEAERLRKTRLAQIGTGERSEKIRTYNFPQSRVTDHRIGFTTHDLEGVLSGHLTPILEALKRADQERQLAALAEG | soluble |
| MLEEFLPSLIAHTPRQSARLIVADNGSTDDSVEFLRRQYPQVELILFPENYGFAEGYNRAIAQTECDCVVLLNSDVEVSEGWLDAPLALLQERSDVAAVQPKIRALRDKHAFEYAGAAGGYVDRWGYPFCRGRIFDAVETDTGQYDDIAEVFWASGAALFIRRQVYMAVGGLDPRFFAHQEEIDLCWRLHSRGWR | not soluble |
| MGSDKIHHHHHHMGIPKRKLGERGPEVSAIGLGCMRMSFGQKKLPDRKEMIKLIRTAVELGINFFDTAEVYGPYTNEELVGEALEPFKGEVVIATKFGFELYEDGRPGWKGLNSNPEHIKKAVEGSLRRLRVEAIDILYQHRVDPNVPIEEVAGAVKELIEEGKVKHFGLCEASAETIRRAHKVCPVDVVQYEYSMWWRKPEEELLPTCEELGIGFVAYSPLGKGFLTGAIGENSKFDEEDSRSRIPRFQKENLRENLALVELRKTIAERKGATPSQIALAWLLAQKPWIVPIPGTTKLSHLLENIGGAFVELTPEELQEINDALSRIEIKGSRYPEDMEKMTYL | not soluble |
| MEEVGGNGGPARIAECGKIGSGTINSNVVPSVNLPSPSVKPSVTPSVKKPPHVIRSDYSKPREKPAKVAKKPTVKNDKKPKPVAIVAPTGIIKTFKTTPNPNRNL | soluble |
| MKTNEVLENIKARRSVRAYTDRQVSEEDLQAILEAATFAPSGMHLETWHFTAIQNADKLAELNERIKGAFAKSDEPKLQERGHSKAYCCYYHAPTLVIVSNEPTQWWAGMDCACAIENMFLAAHSLGIGSCWINQLGTTCDDPEVREFISSLGVPENHKVYGCVALGYADPKISLREKMVKAGTVTVVR | not soluble |
| MGSDKIHHHHHHMIVERVEEYLDRIEKINKDINALIEVKPEKVLEEAKKLEKDEKAKKKPLYGKIIVVKANINVEGYTISCASKTLENYIAPYDATVIEKIKENGGLIIGIANMDEFACGSSGETSYFGPTKNPRAKDRIPGGSSSGSAAAVSADLCDMALGSDTGGSIRNPASHCGVVGFKPSYGVVSRYGLCDLAMSFDQIGPLTKTAEDALLLTNIIKGKDLRDTTTVETKPFEKKDIKGFKVGVVKEFMDVADEKIRDKVEKAIEVFKDLGCEIVELSYKYVDLALPTYYLINYVEFFSSTRRYDGRRYGYKIEEVCGEEVLRRIMIGSMISQKEYSGKYYKNALKARNLMRNEMIKIMKDVDIIVGATVPKLPHKLGEKLTPMEMYSYDVLTVPANICGLCAGVVPCGDINGIPVGLQIQGKPFEDEKVLSAMIAFEKAME | not soluble |
| MKHKTKILHLKNGYDLWGASFGDPNSPIKILALHGGPGDDADEFIVWADQLKKFARIDAEVFVYEQLGSFHSESPDFSKKENVDNYLNYNYYINEVEEVRQLFDLDNFYLAGHSWGGILAYEYMLRSEYRQHLKAGIVFSMNDNIDDYVKQINKELLDMFGEQEFKYMKRIETSGDFSQKHYHQNLIELYKEHLNRDPNYNPDDGMKMMAEDVYHHFQGNNEFVVTGEMKNWNVSSRLPEFDIPVLETVGEFDTMSVESAKRSARKLPRGRFALTENGGHSHAQDHPKEFFEHLGSFIKDVKAGNV | not soluble |
| MYVIDTSAIISRNLNLLEGDLMFPSSVIGEIKKGKLRYMIDVLLPMIRVASPDHEYLKIVEETAAKTGDLMNLSQTDKDVLALALQYDATIVTDDYSIQNVASYLNLGFLNA | soluble |
| MSRTIWLVRHGQRVDNVDKKWKANNDAKWDDPELTLRGKQQAHEVGKHFANMNIEAIVVSPFTRCIETAAQIVAMMENKAKICVEPGLMEPLYLCKNPPTIPSMDKIKEYSTQVDESYKPVFEKLPISEISLLFSEISLLFPMVLHWQTSTLS | not soluble |
| MTSSFLYVLFTVSCLAALVSISEACFASGICGGGCPPPPPPMCSGGCGGGYSCGSYGCYRARARGSKTLSFKKPSEMNPDERFMKCCEDRNLPDSCLSKCSYRSYTKSALQSMYFKQDSCPMQAAADIQFCAAQGKDHTACCARNAVGTTLAGNKCFTFCDQRPGNVTQLDMSYLACYDRFENMKACFYQKASEASDPIVSFSNDRDNNREFAVDTETAEFRRPSQEHFRAPTSPQLPQNPLFAVQNLLARTFGQ | not soluble |
| MSLEAEGDEIYEDLMRSEPVSMPPKMTEYDKRCCCLREIQQTEEKYTDTLGSIQQHFLKPLQRFLKPQDIEIIFINIEDLLRVHTHFLKEMKEALGTPGAANLYQVFIKYKERFLVYGRYCSQVESASKHLDRVAAAREDVQMKLEECSQRANNGRFTLRDLLMVPMQRVLKYHLLLQELVKHTQEAMEKENLRLALDAMRDLAQCVNEVKRDEGHHHHHH | soluble |
| MRTVVPFDPRDPKSRLAEFFADAEERRGFAYAMLADVLGAVRDAGGDPVVVATAPVSRPVDAPVTVDDRALSTAVAAAIADGPLPTAVVMADLALATPDAIRRVFAASGDVVLAPGSGGGTNVVLARTADVPVSYHGVSFRDHVTAAERAGLTVTTVDSFRLAADVDDASDLVDVFVHNTRRTREWLIAGGWRLAVDDGTPTVVREPND | not soluble |
| MAFDDLRSFLQALDDHGQLLKISEEVNAEPDLAAAANATGRIGDGAPALWFDNIRGFTDARVAMNTIGSWQNHAISLGLPPNTPVKKQIDEFIRRWDNFPIAPERRANPAWAQNTVDGEEINLFDILPLFRLNDGDGGFYLDKACVVSRDPLDPDNFGKQNVGIYRMEVKGKRKLGLQPVPMHDIALHLHKAEERGEDLPIAITLGNDPIITLMGATPLKYDQSEYEMAGALRESPYPIATAPLTGFDVPWGSEVILEGVIESRKREIEGPFGEFTGHYSGGRNMTVVRIDKVSYRSKPIFESLYLGMPWTEIDYLLEHHHHHH | not soluble |
| MNKIIISIGREFGSGGRRIGELLAKELEVPCYDRHLIEEAACRSGFETKELEEADEMKANRFLFKVPAKSNQYTGYGKPMNDTLFAIQSELIRKYADAGSCVIVGRCADKVLEKQEGLISVFIYAPLEARVEEIRRRYETDGEEALYLVRQADKIRRNYYNYYAKKKWGDRSSYDLMIDSSHFTDREVAAMIRAVSEERKAEWEENKFSTPQG | not soluble |
| MSLQTIKIGLPVPLSGPYGAEAQDQVRNAELAVKQFNDAGGLDGRKAQLLVRDDRLNPAEAATRALELIEKDGVNFIVGGLSAATQLSINNVTRQRKKLYISISQSDAINEAADASPYTFHEALNPHMTTQAVGKYVFKPGMRVAFLTADYAYGHEMTRGFTEVARQQGAEVVGEVKHPLGASDYSAFLPRLKALNPDVLVFNNFGADNRISIKQAADFGMKRNIRFVTPILTYTARVSGGAATYQDVVGGTQYYWAIQDSVPSAKAFNAAFQAENNGRFPSDYGAMAYSAVKSLLLAVRDAGSTDTDEVAAALRKLKYDTYKGAQYYRGCDQQSVQSVLVIQSVGKDNAHPDEVFKLLHTEAPSEGHHHHHH | soluble |
| SPVTKCPRKVEPPWKGWDRKAQKNGLRHQVFAVNGDHYVGEWKGNLKHGKGTQVWKKSGAVYEGDWKFGKRDGYGSLSHPDPETGKLRRVYSGWWKGDKKSGYGIQFFGPKEYYEGEWCNNQRSGWGRMYYNNGDIYEGQWQNDKPEGEGMLRLKNGNRYEGIWERGMKNGHGRFFHLDHGQLFEGYWVDNVAKCGTMIDFGRDEAPEPTQFPIPKVEILDPDGVLKEALDKLMKPEEEEG | soluble |
| GDTKEQRILNHVLQHAEPGNAQSVLEAIDTYCEQKEWAMNVGDKKGKIVDAVIQEHQPSVLLELGAYCGYSAVRMARLLSPGARLITIEINPDCAAITQRMVDFAGMKDKVTLVVGASQDIIPQLKKKYDVDTLDMVFLDHWKDRYLPDTLLLEECGLLRKGTVLLADNVICPGAPDFLAHVRGSSCFECTHYQSFLEYREVVDGLEKAIYKGP | soluble |
